Results from paper PMC2191747 (The Journal of Experimental Medicine, 1994).

T1: human CD58 D33A (human, UniProt P19256 29-250, D33A)
T1 sequence (looked up): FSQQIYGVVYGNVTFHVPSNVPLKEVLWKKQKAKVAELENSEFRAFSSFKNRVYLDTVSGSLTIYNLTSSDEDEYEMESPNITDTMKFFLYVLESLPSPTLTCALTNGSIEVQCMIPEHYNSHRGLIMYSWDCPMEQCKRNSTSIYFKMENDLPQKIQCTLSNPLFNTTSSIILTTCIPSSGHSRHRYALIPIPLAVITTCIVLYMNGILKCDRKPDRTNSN

T2: human CD58 E76A (human, UniProt P19256 29-250, E76A)
T2 sequence (looked up): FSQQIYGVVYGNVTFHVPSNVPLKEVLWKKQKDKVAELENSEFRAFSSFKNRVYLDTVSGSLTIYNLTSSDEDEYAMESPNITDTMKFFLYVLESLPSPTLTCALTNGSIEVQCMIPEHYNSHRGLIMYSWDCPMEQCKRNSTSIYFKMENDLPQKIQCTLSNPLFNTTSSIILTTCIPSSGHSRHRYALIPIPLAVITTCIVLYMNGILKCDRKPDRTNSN

T3: human CD58 K87A (human, UniProt P19256 29-250, K87A)
T3 sequence (looked up): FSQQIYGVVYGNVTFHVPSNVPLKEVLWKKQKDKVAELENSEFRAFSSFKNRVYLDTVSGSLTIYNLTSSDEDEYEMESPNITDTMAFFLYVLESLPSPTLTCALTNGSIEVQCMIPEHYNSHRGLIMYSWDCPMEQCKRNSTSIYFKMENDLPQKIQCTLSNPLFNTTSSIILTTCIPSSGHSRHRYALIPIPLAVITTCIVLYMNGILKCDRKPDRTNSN

T4: human CD58 K30A (human, UniProt P19256 29-250, K30A)
T4 sequence (looked up): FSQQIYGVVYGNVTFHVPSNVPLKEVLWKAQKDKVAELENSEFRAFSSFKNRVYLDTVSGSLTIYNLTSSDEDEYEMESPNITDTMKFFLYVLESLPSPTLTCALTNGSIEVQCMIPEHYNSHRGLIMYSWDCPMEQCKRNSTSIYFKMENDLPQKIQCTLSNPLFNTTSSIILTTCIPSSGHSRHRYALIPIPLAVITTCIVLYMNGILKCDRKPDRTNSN

T5: human CD58 E25A (human, UniProt P19256 29-250, E25A)
T5 sequence (looked up): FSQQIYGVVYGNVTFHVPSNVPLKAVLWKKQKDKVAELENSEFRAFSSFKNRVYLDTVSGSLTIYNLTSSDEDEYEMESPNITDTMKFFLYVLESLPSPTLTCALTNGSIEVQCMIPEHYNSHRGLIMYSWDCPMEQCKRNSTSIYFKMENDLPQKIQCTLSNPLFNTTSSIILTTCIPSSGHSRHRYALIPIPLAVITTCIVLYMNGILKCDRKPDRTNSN

T6: human CD58 E37A (human, UniProt P19256 29-250, E37A)
T6 sequence (looked up): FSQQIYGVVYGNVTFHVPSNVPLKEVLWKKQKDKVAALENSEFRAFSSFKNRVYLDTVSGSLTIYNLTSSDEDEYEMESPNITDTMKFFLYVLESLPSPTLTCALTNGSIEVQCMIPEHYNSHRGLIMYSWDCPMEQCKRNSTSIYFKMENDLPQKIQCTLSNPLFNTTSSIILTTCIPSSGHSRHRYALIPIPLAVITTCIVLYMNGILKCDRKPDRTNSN

T7: human CD58 R44A (human, UniProt P19256 29-250, R44A)
T7 sequence (looked up): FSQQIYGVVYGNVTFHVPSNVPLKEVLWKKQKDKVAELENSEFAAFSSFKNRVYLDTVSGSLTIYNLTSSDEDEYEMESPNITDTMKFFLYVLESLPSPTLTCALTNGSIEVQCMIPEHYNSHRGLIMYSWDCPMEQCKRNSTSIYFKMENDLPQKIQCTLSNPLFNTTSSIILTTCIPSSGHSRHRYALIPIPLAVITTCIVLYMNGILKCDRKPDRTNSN

B1: human CD2 (receptor, human (endogenous in Jurkat), UniProt P06729 25-351, looked up)
chain: KEITNALETWGALGQDINLDIPSFQMSDDIDDIKWEKTSDKKKIAQFRKEKETFKEKDTYKLFKNGTLKIKHLKTDDQDIYKVSIYDTKGKNVLEKIFDLKIQERVSKPKISWTCINTTLTCEVMNGTDPELNLYQDGKHLKLSQRVITHKWTTSLSAKFKCTAGNKVSKESSVEPVSCPEKGLDIYLIIGICGGGSLLMVFVALLVFYITKRKKQRSRRNDEELETRAHRVATEERGRKPHQIPASTPQNPATSQHPPPPPGHRSQAPSHRPPPPGHRVQHQPQKRPPAPSGTQVHQQKGPPLPRPRVQPKPPHGAAENSLSPSSN

Experiments:
Experiment in all cases: cell-cell adhesion assay
human CD58 K34A (human) = human CD58 K34A (human) (UniProt P19256)
human CD58 D33A = target: T1, human CD58 D33A
human CD58 E76A = target: T2, human CD58 E76A
human CD58 K87A = target: T3, human CD58 K87A
human CD58 K30A = target: T4, human CD58 K30A
human CD58 E25A = target: T5, human CD58 E25A
human CD58 E37A = target: T6, human CD58 E37A
human CD58 R44A = target: T7, human CD58 R44A

Molecule	% binding relative to wtCD58 (human CD58 K34A (human)) [%]	% binding relative to wtCD58 (human CD58 D33A) [%]	% binding relative to wtCD58 (human CD58 E76A) [%]	% binding relative to wtCD58 (human CD58 K87A) [%]	% binding relative to wtCD58 (human CD58 K30A) [%]	% binding relative to wtCD58 (human CD58 E25A) [%]	% binding relative to wtCD58 (human CD58 E37A) [%]	% binding relative to wtCD58 (human CD58 R44A) [%]
human CD2 (from UniProt P06729 25-351) (receptor)	1	–	–	–	–	–	–	–
B1	–	26	107	< 30	64	68	< 30	79
